Laboratory results taken from article PMC7887190.

Target: YB1 (UniProt P67809)
Assay: reciprocal co-IP (anti-YB1, anti-WAVE3), blot

Row | binding against the reference (reference: wild-type WAVE3 (W3-WT), sites Y151,Y248,Y337,Y486) | binding against the reference (reference: PRD-WT (GFP fusion), sites Y248,Y337) | Substance
1 | lost |  | WAVE3 (from UniProt Q9UPY6) W3-Y4F
2 |  | weaker | WAVE3 proline-rich domain (PRD) (from UniProt Q9UPY6) PRD-DM (Y248F/Y337F)
